Data from PMC9852238.

Assays:
[1] = molecular target: SARS-CoV-2 Delta Spike (14-1209, S2P) (SARS-CoV-2) (UniProt P0DTC2); test: cryo-EM structure
[2] = molecular target: SARS-CoV-2 Omicron BA.1 Spike (14-1209, S2P) (SARS-CoV-2) (UniProt P0DTC2); test: cryo-EM structure

Substance	stoichiometry N [1]	stoichiometry N [2]
SARS-CoV-2 Delta Spike (14-1209, S2P) (from UniProt P0DTC2 14-1209) (natural protein)	3	
SARS-CoV-2 Omicron BA.1 Spike (14-1209, S2P) (from UniProt P0DTC2 14-1209) (natural protein)		3
